How the values were obtained:
[1] = target: 6xHis-CtpA(ΔN37, S302A), purified alone (Pseudomonas aeruginosa); experiment: negative staining EM; CtpA(S302A) 10 μg/ml on carbon grids prepared at room temperature, uranium formate stain, 2D classification
[2] = target: 6xHis-CtpA(ΔN37, ΔC6) (Pseudomonas aeruginosa); experiment: SEC; separately purified CtpA (or CtpAΔC6) mixed with LbcA at molar ratios 6:1, 6:2, 6:3, 30 °C for 15 min in 20 mM Tris pH 7.5, 5 mM MgCl2, 100 mM KCl; Superdex 200 increase; peaks analysed by SDS-PAGE
[3] = target: 6xHis-CtpA(ΔN37, ΔC6) (Pseudomonas aeruginosa); experiment: SEC; CtpA or CtpAΔC6 alone incubated at 30 °C for 15 min in 20 mM Tris pH 7.5, 5 mM MgCl2, 100 mM KCl; Superdex 200 increase
[4] = target: 6xHis-CtpA(ΔN37, ΔC6) (Pseudomonas aeruginosa); experiment: cryo-EM 2D class averages of a cross-linked mixture; CtpAΔC6 mixed with LbcA at 6:4 molar ratio, 30 °C for 15 min in 20 mM HEPES pH 7.5, 5 mM MgCl2, 100 mM KCl, cross-linked with 1 mM BS(PEG)9 on ice overnight; 2D classification
[5] = target: CtpA as used in the gel filtration experiments (Pseudomonas aeruginosa); experiment: SEC; CtpA or CtpAΔC6 alone incubated at 30 °C for 15 min in 20 mM Tris pH 7.5, 5 mM MgCl2, 100 mM KCl; Superdex 200 increase
[6] = target: CtpA as used in the gel filtration experiments (Pseudomonas aeruginosa); experiment: SEC; separately purified CtpA (or CtpAΔC6) mixed with LbcA at molar ratios 6:1, 6:2, 6:3, 30 °C for 15 min in 20 mM Tris pH 7.5, 5 mM MgCl2, 100 mM KCl; Superdex 200 increase; peaks analysed by SDS-PAGE
[7] = target: CtpA as used in the gel filtration experiments (Pseudomonas aeruginosa); experiment: SEC; CtpA or CtpAΔC6 alone incubated at 30 °C for 15 min in 20 mM Tris pH 7.5, 5 mM MgCl2, 100 mM KCl; Superdex 200 increase; remark: listed apart in the source
[8] = target: CtpA as used in the gel filtration experiments (Pseudomonas aeruginosa); experiment: not stated; CtpA alone on ice at 4 °C (Appendix Fig. S12a)
[9] = target: CtpA(ΔN37, S302A), co-expressed with LbcA(ΔN31), 6xHis tag removed (Pseudomonas aeruginosa); experiment: cryo-EM structure; co-expressed CtpA(ΔN37, S302A)-LbcA(ΔN31) complex purified by HiTrap Ni, HiTrap Q and Superose 6 Increase (20 mM Tris pH 7.5, 5 mM MgCl2, 100 mM KCl, 1 mM DTT), 0.8 mg/ml; single particle analysis; molar ratio judged by band intensity in stained SDS-PAGE gels
[10] = target: 6xHis-CtpA(ΔN37, S302A), purified alone (Pseudomonas aeruginosa); experiment: ITC; 250 μM LbcA in the syringe titrated into 9 μM CtpA hexamer (32 μM for CtpAΔC6 dimer) in the cell; 25 °C; 20 mM Tris pH 7.5, 5 mM MgCl2, 100 mM KCl; one-site fit
[11] = target: 6xHis-CtpA(ΔN37), wild type (Pseudomonas aeruginosa); experiment: as above
[12] = target: 6xHis-CtpA(ΔN37, ΔC6) (Pseudomonas aeruginosa); experiment: as above

For “6xHis-CtpA(ΔN37, S302A), purified alone (enzyme)”, the stoichiometry N [1] was 2.

6xHis-CtpA(ΔN37, ΔC6) (enzyme) gave a stoichiometry N [2] of 2, a stoichiometry N [3] of 2 and a stoichiometry N [4] of 2.

For “CtpA as used in the gel filtration experiments (printed only as CtpA) (enzyme)”, the stoichiometry N [5] was 6, the stoichiometry N [6] was 6 and the stoichiometry N [7] was 2. The stoichiometry N [8] was 6.

“CtpA(ΔN37, S302A), co-expressed with LbcA(ΔN31), 6xHis tag removed (enzyme)” gave a stoichiometry N [9] of 6.

Work on “LbcA(ΔN31) with C-terminal 6xHis tag, purified alone (natural protein)” yielded a Kd [10] of 0.76 µM, a stoichiometry N (LbcA per CtpA dimer) [10] of 1 and a Kd [11] of 0.92 µM. For the same substance, the Kd [12] was 0.85 µM and the stoichiometry N (CtpA:LbcA (molar ratio)) [6] was 2.

In the case of “LbcA(ΔN31), co-expressed with CtpA(ΔN37, S302A) (natural protein)”, the stoichiometry N (CtpA:LbcA (molar ratio)) [9] is reported as 2.

Reference: publication PMC11021448
